This test addresses human C3b (human) (UniProt P01024). As to the kind of experiment: cell-based or functional assay.

Where “and” joins values, the source holds several entries; their conditions need not be identical. Equal values may be shown once.

UniProt P01024, sequence (P01024 749-1663 limits assumed, chain 1 of 2): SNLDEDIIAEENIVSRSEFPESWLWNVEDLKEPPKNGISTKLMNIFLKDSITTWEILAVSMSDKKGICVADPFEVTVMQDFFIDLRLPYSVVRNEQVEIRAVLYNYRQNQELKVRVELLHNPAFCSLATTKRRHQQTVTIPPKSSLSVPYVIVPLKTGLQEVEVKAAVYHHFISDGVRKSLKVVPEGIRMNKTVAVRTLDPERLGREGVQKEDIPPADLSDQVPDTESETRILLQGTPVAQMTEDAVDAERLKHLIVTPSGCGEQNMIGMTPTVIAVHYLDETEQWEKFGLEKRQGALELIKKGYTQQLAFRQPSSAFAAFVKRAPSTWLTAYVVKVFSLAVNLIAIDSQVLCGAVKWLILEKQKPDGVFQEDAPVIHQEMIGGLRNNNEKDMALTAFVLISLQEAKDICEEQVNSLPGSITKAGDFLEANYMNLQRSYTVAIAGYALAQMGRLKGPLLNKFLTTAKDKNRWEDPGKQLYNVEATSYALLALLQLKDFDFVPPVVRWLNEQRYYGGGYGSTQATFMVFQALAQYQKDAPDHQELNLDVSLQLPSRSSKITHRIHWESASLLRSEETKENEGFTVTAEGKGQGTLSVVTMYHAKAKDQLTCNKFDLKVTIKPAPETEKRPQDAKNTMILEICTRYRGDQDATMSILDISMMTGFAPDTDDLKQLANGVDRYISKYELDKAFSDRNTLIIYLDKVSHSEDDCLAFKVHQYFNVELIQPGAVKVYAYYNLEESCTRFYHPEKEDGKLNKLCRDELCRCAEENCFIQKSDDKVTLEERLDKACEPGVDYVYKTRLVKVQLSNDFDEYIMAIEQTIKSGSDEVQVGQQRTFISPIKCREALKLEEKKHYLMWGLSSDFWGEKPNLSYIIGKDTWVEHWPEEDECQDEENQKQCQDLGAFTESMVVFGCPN
UniProt P01024, sequence (P01024 23-667 limits assumed, chain 2 of 2): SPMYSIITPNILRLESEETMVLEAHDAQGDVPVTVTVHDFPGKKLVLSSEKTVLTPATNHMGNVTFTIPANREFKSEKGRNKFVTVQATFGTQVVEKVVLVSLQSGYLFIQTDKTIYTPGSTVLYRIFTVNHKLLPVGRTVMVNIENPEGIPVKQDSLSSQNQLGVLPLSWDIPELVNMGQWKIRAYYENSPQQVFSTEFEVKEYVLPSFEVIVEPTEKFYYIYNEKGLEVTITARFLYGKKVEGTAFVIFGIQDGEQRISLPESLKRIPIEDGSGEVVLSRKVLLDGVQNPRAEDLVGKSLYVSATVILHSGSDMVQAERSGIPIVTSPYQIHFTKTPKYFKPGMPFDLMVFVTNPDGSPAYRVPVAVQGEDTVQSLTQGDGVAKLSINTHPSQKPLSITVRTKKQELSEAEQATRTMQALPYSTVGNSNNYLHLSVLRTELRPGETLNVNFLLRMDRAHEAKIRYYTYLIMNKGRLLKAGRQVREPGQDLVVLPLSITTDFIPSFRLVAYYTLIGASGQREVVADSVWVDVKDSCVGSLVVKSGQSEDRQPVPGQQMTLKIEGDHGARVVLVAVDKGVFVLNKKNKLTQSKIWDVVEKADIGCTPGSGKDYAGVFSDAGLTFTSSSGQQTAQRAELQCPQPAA

Turning to “recombinant fragment pFH SCR1-4 (porcine complement regulator factor H, short consensus repeats 1-4)”, the difference in half-maximum activity in the cleavage of human C3b against human FHL-1 (dilution step) is < 1; the half-maximum cleavage activity of hC3b (cofactor dilution, start 0.7 µg in 5 µl) (fold dilution (1:x)) is 8 and 16.
Consider “human FHL-1 (factor H like protein 1), recombinant (from UniProt P08603 19-449)”, for which the half-maximum cleavage activity of hC3b (cofactor dilution, start 0.7 µg in 5 µl) (fold dilution (1:x)) is 16 and 8.

These data come from patent EP1336618A1.
